The values that follow come from the supplement of paper PMC7877785.

± gives the uncertainty stated by the source.

This data set can be described thus: self-splicing fitness, log relative to wild type (ln ratio); higher = more splicing; Tetrahymena group I intron in knt gene, E. coli kanamycin selection, DiMSum; sequences stand for … in CUCUCU…GGAGGGAAAAGUUAUCAGGCAUGCACCUGGUAGCUAGUCUUUAAACCAAUAGAUUGCAUCGGUUUAAAAGGCAAGACCGUCAAAUUGCGGGAAAGGGGUCAACAGCCGUUCAGUACCAAGUCUCAGGGGAAACUUUGAGAUGGCCUUGCAAAGGGUAUGGUAAUAAGCUGACGGACAUGGUCCUAACCACGCAGCCAAGUCCUAAGUCAACAGAUCUUCUGUUGAUAUGGAUGCAGUUCACAGACUAAAUGUCGGUCGGGGAAGAUGUAUUCUUCUCAUAAGAUAUAGUCGGACCUCUCCUUAAUGGGAGCUAGCGGAUGAAGUGAUGCAACACUGGAGCCGCUGGGAACUAAUUUGUAUGCGAAAGUAUAUUGAUUAGUUUUGGAGUACUCGUGGUCG
Summed up:
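A randomised library covering all eight P1ex-region intron nucleotides was built with the intron in the knt kanamycin-resistance gene on pET-22b(+) and held in E. coli BL21(DE3). Cells were grown overnight at 37°C or 30°C on LB agar, with or without 25 μg/mL kanamycin, plus 100 μg/mL carbenicillin, 50 μM IPTG and 0.2% rhamnose, and pooled colonies were amplicon-sequenced on an Illumina HiSeq 2500. DiMSum fitness is the error-weighted combination of wild-type-normalised replicate fold changes, kanamycin versus none.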

CCGAAGCAAUAUUACGAAAU: the “self-splicing fitness (ln)” value was -4.57 ± 0.29 (30 °C) and -1.9 ± 0.2 (37 °C).
In the same order, the values of GGCUAGCAAUAUUACGAUAA are -1.28 ± 0.17 and -1.75 ± 0.16.
Taken in the same sequence, the figures for GUCAAGCAAUAUUACGAGCU were -3.49 ± 0.17 and -1.85 ± 0.15.
Take AGAUAGCAAUAUUACGAUGA: the “self-splicing fitness (ln)” value was -1.5 ± 0.13 (30 °C) and -0.349 ± 0.097 (37 °C).
Taken in the same sequence, the figures for GCGCAGCAAUAUUACGAACU were 0.116 ± 0.11 and 0.476 ± 0.13.
Taken in the same sequence, the figures for GCCAAGCAAUAUUACGGUUU were -1.08 ± 0.047 and -0.943 ± 0.07.
Taken in the same sequence, the figures for GAAAAGCAAUAUUACGCAGA were -2.53 ± 0.18 and -2.2 ± 0.13.
On to UCUUAGCAAUAUUACGUUGG, for which the “self-splicing fitness (ln)” value reads like this: (30 °C) -2.76 ± 0.18; (37 °C) -2.65 ± 0.19.
In the same order, the values of UAGAAGCAAUAUUACGCGUA are -0.436 ± 0.11 and -0.472 ± 0.12.
In the same order, the values of UAUCAGCAAUAUUACGCAGU are -2.62 ± 0.13 and -0.577 ± 0.11.
In the same order, the values of CACAAGCAAUAUUACGUUUA are -2.95 ± 0.15 and -1.95 ± 0.13.
Turning to UCCUAGCAAUAUUACGGAAG, the “self-splicing fitness (ln)” value was -3.41 ± 0.28 (30 °C) and -1.23 ± 0.43 (37 °C).
Taken in the same sequence, the figures for GCCAAGCAAUAUUACGAGAC were -2.73 ± 0.18 and -0.746 ± 0.12.
Regarding CGAGAGCAAUAUUACGCAGG, the “self-splicing fitness (ln)” value (37 °C) was -1.63 ± 0.17.
AAGCAGCAAUAUUACGACCC: the “self-splicing fitness (ln)” value (30 °C) is -1.78 ± 0.14 and the “self-splicing fitness (ln)” value (37 °C) is -0.112 ± 0.15.
Taken in the same sequence, the figures for CCGGAGCAAUAUUACGAAGG were -2.63 ± 0.14 and -2.28 ± 0.22.
Taken in the same sequence, the figures for GAUAAGCAAUAUUACGCGCG were -0.359 ± 0.096 and 0.119 ± 0.15.
On to GGAAAGCAAUAUUACGAUAC, for which the “self-splicing fitness (ln)” value was 0.424 ± 0.17 (30 °C) and -0.511 ± 0.35 (37 °C).
In the same order, the values of GUGCAGCAAUAUUACGAGAC are -2.12 ± 0.13 and -1.53 ± 0.12.
Take GCUUAGCAAUAUUACGCUGG: the “self-splicing fitness (ln)” value (37 °C) is -2.13 ± 0.3.
For ACUAAGCAAUAUUACGGUGU, the “self-splicing fitness (ln)” value runs as follows: (30 °C) -3.49 ± 0.15; (37 °C) -2.23 ± 0.12.
As for AUAAAGCAAUAUUACGCGGG, the “self-splicing fitness (ln)” value is -2.55 ± 0.13 (30 °C) and -1.4 ± 0.16 (37 °C).
In the same order, the values of ACCAAGCAAUAUUACGUGCG are -1.03 ± 0.052 and -0.972 ± 0.069.
Taken in the same sequence, the figures for GCCGAGCAAUAUUACGCGUU were -1.62 ± 0.076 and -0.778 ± 0.095.
Taken in the same sequence, the figures for ACCAAGCAAUAUUACGCAAC were -3.4 ± 0.38 and -1.01 ± 0.17.
In the case of UAUGAGCAAUAUUACGUUAA, the “self-splicing fitness (ln)” value reads like this: (30 °C) -4.12 ± 0.31; (37 °C) -2.59 ± 0.28.
In the same order, the values of UUUUAGCAAUAUUACGGCCA are -1.57 ± 0.19 and -0.0772 ± 0.19.
Taken in the same sequence, the figures for GGGGAGCAAUAUUACGCUUC were -3.28 ± 0.4 and -2.12 ± 0.49.
Take UUCCAGCAAUAUUACGUUCC: the “self-splicing fitness (ln)” value (37 °C) was -1.84 ± 0.42.
As to CACGAGCAAUAUUACGACAU, the “self-splicing fitness (ln)” value is, setting by setting: (30 °C) -3.645 ± 0.024; (37 °C) -2.92 ± 0.04.
Taken in the same sequence, the figures for CCGCAGCAAUAUUACGCAUA were -3.34 ± 0.19 and -2.31 ± 0.17.
In the case of CAAGAGCAAUAUUACGUGUC, the “self-splicing fitness (ln)” value is -4.19 ± 0.2 (30 °C) and -3.11 ± 0.2 (37 °C).
UUCAAGCAAUAUUACGCAAC: under “37 °C”, the “self-splicing fitness (ln)” value is -1.43 ± 0.47.
CAUAAGCAAUAUUACGAAUG: the “self-splicing fitness (ln)” value by setting is: (30 °C) -3.79 ± 0.23; (37 °C) -2.32 ± 0.19.
Taken in the same sequence, the figures for UAUUAGCAAUAUUACGGCAC were -1.88 ± 0.21 and -0.983 ± 0.35.
Take CAGUAGCAAUAUUACGAAGA: the “self-splicing fitness (ln)” value (37 °C) was -2.1 ± 0.41.
On to AAUGAGCAAUAUUACGUUCU, for which the “self-splicing fitness (ln)” value by setting is: (30 °C) -2 ± 0.085; (37 °C) -1.21 ± 0.092.
Regarding UACCAGCAAUAUUACGUUUC, the “self-splicing fitness (ln)” value is -4 ± 0.28 (30 °C) and -2.56 ± 0.22 (37 °C).
In the same order, the values of UACAAGCAAUAUUACGGCCC are -1.69 ± 0.31 and -1.35 ± 0.44.
Taken in the same sequence, the figures for UGAUAGCAAUAUUACGUCGA were -1.69 ± 0.11 and -0.847 ± 0.1.
Taken in the same sequence, the figures for UGGAAGCAAUAUUACGUCCC were -0.397 ± 0.19 and 0.402 ± 0.22.
Regarding GUGAAGCAAUAUUACGCCUA, the “self-splicing fitness (ln)” value by setting is: (30 °C) -0.415 ± 0.11; (37 °C) -0.226 ± 0.17.
Taken in the same sequence, the figures for CCCGAGCAAUAUUACGUGGG were -3.97 ± 0.19 and -2.79 ± 0.19.
Turning to CCAAAGCAAUAUUACGCGCC, the “self-splicing fitness (ln)” value reads like this: (30 °C) -3.43 ± 0.21; (37 °C) -2.71 ± 0.27.
With CUACAGCAAUAUUACGGUUU, the “self-splicing fitness (ln)” value by setting is: (30 °C) -3.8 ± 0.16; (37 °C) -1.31 ± 0.11.
For the sequence CAGGAGCAAUAUUACGCAUA, the “self-splicing fitness (ln)” value (37 °C) is -1.73 ± 0.33.
AGCUAGCAAUAUUACGGUAU: the “self-splicing fitness (ln)” value by setting is: (30 °C) -1.44 ± 0.08; (37 °C) -0.9 ± 0.1.
Taken in the same sequence, the figures for CCCGAGCAAUAUUACGGAGA were -3.28 ± 0.14 and -1.36 ± 0.11.
In the same order, the values of CUGAAGCAAUAUUACGUCCG are 0.226 ± 0.083 and 0.658 ± 0.13.
With GCUGAGCAAUAUUACGAAUG, the “self-splicing fitness (ln)” value (37 °C) is -1.4 ± 0.37.
Consider CUGUAGCAAUAUUACGAGGU, for which the “self-splicing fitness (ln)” value runs as follows: (30 °C) -4.23 ± 0.28; (37 °C) -2.42 ± 0.21.
In the case of GACAAGCAAUAUUACGGAGG, the “self-splicing fitness (ln)” value was -4.57 ± 0.31 (30 °C) and -2.08 ± 0.19 (37 °C).
Regarding AUUGAGCAAUAUUACGUAUG, the “self-splicing fitness (ln)” value (30 °C) is -3.63 ± 0.46.
Turning to UAUGAGCAAUAUUACGGGUC, the “self-splicing fitness (ln)” value was -3.72 ± 0.23 (30 °C) and -2.91 ± 0.25 (37 °C).
Taken in the same sequence, the figures for AAAUAGCAAUAUUACGAUUU were -0.479 ± 0.061 and -0.0855 ± 0.081.
Taken in the same sequence, the figures for CAUAAGCAAUAUUACGUGUC were -3.62 ± 0.2 and -2.55 ± 0.17.
Taken in the same sequence, the figures for AGCAAGCAAUAUUACGGACG were -0.404 ± 0.061 and -0.244 ± 0.086.
Regarding UCCCAGCAAUAUUACGUACA, the “self-splicing fitness (ln)” value (30 °C) is -1.92 ± 0.14 and the “self-splicing fitness (ln)” value (37 °C) is -0.819 ± 0.1.
Taken in the same sequence, the figures for UGUGAGCAAUAUUACGUGCG were -1.36 ± 0.11 and -1.06 ± 0.14.
In the same order, the values of CUAUAGCAAUAUUACGGUAC are -3.68 ± 0.28 and -1.51 ± 0.25.
In the same order, the values of GGAUAGCAAUAUUACGGUGU are -1.3 ± 0.059 and -1.05 ± 0.083.
Regarding UACAAGCAAUAUUACGUCCG, the “self-splicing fitness (ln)” value reads like this: (30 °C) -0.564 ± 0.068; (37 °C) -0.0254 ± 0.091.
In the same order, the values of GAAAAGCAAUAUUACGGCGU are -0.208 ± 0.095 and 0.24 ± 0.11.
As for CAAGAGCAAUAUUACGAUAU, the “self-splicing fitness (ln)” value was -3.3 ± 0.29 (30 °C) and -2.7 ± 0.3 (37 °C).
With AAUAAGCAAUAUUACGAAGA, the “self-splicing fitness (ln)” value (30 °C) is -1.52 ± 0.26 and the “self-splicing fitness (ln)” value (37 °C) was -1.92 ± 0.32.
In the same order, the values of AAGAAGCAAUAUUACGGGGG are -2.79 ± 0.21 and -2.09 ± 0.23.
In the same order, the values of CCUUAGCAAUAUUACGUCGC are -3.07 ± 0.4 and -2.66 ± 0.38.
Taken in the same sequence, the figures for GGUCAGCAAUAUUACGUGCC were -2.9 ± 0.23 and -0.811 ± 0.26.
Turning to UAGUAGCAAUAUUACGGAGC, the “self-splicing fitness (ln)” value (30 °C) was -2.84 ± 0.35.
For ACUAAGCAAUAUUACGGGCC, the “self-splicing fitness (ln)” value (30 °C) is -2.88 ± 0.2 and the “self-splicing fitness (ln)” value (37 °C) was -1.73 ± 0.21.
In the same order, the values of AACAAGCAAUAUUACGACAG are -2.25 ± 0.078 and -1.76 ± 0.09.
Taken in the same sequence, the figures for AAAGAGCAAUAUUACGUGCC were -3.09 ± 0.21 and -2.35 ± 0.22.
On to ACUCAGCAAUAUUACGACGG, for which the “self-splicing fitness (ln)” value is, setting by setting: (30 °C) -0.71 ± 0.072; (37 °C) 0.0441 ± 0.12.
Taken in the same sequence, the figures for GAGGAGCAAUAUUACGAUCG were -2.15 ± 0.22 and -1.2 ± 0.32.
In the same order, the values of ACUGAGCAAUAUUACGUUCG are -2.2 ± 0.15 and -0.355 ± 0.12.
In the same order, the values of CACAAGCAAUAUUACGAAUU are -3.63 ± 0.26 and -2.75 ± 0.21.
With UUCAAGCAAUAUUACGUUAU, the “self-splicing fitness (ln)” value was -4.39 ± 0.21 (30 °C) and -2.3 ± 0.15 (37 °C).
UUAGAGCAAUAUUACGUUCU: the “self-splicing fitness (ln)” value runs as follows: (30 °C) -4.07 ± 0.27; (37 °C) -2.92 ± 0.3.
